Data from PMC11118347 (bioRxiv, 2024).

Biological target: the molecule itself
Experiment: crystal structure

B1: Human lens fiber membrane intrinsic protein MP20 (construct selected for crystallization) (natural protein)
chain: MYSFMGGGLFCAWVGTILLVVAMATDHWMQYRLSGSFAHQGLWRYCLGNKCYLQTDSIAYWNATRAFMILSALCAISGIIMGIMAFAHQPTFSRISRPFSAGIMFFSSTLFVVLALAIYTGVTVSFLGRRFGDWRFSWSYILGWVAVLMTFFAGIFYMCAYRVHECRRLSTPR
modifications: Janelia Fluor 549 NHS-ester labelling on column; membranes incubated with iodoacetamide
stoichiometry N: 4
